Measurements: patent publication US20030092068A1 (ASAHI KASEI, published 2003)

Biological target: c-Kit (CD117) on human undifferentiated blood cells (UT-7, M07e, cord blood-derived CD34 positive cells) (human, UniProt P10721 26-976)
Assay: cell-based or functional assay

c-Kit (CD117) on human undifferentiated blood cells (UT-7, M07e, cord blood-derived CD34 positive cells), sequence (P10721 26-976): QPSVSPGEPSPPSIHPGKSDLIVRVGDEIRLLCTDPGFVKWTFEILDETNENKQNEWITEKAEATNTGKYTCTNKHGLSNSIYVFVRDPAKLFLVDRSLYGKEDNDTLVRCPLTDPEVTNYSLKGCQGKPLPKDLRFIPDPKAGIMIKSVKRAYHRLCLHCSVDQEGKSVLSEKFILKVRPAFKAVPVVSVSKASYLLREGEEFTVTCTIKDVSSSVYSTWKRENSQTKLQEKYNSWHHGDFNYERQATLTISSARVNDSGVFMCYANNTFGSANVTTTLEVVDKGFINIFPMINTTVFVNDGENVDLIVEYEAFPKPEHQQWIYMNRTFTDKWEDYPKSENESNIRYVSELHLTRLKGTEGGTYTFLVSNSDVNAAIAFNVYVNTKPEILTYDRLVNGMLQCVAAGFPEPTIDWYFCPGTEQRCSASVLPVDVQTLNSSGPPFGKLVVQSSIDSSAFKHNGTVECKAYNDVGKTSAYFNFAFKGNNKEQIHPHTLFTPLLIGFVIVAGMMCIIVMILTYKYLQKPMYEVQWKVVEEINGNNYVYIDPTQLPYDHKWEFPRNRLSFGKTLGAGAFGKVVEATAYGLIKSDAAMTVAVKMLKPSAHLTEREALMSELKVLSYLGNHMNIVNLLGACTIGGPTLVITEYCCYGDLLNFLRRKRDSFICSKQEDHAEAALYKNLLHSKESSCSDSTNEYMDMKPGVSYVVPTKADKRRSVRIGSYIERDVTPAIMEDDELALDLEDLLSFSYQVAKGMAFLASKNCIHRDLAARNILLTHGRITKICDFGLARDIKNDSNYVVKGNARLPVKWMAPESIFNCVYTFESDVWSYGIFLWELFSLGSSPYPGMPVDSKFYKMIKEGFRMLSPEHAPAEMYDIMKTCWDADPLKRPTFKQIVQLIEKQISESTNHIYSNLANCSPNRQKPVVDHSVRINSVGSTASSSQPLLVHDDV

B1: polypeptide (CARex-mSCF), being CAR extracellular region linked with mouse SCF (other)
chain: LSITTPEEMIEKAKGETAYLPCKFTLSPEDQGPLDIEWLISPADNQKVDQVIILYSGDKIYDDYYPDLKGRVHFTSNDLKSGDASINVTNLQLSDIGTYQCKVKKAPGVANKKIHLVVLVKPSGARCYVDGSEEIGSDFKIKCEPKEGSLPLQYEWQKLSDSQKMPTSWLAEMTSSVISVKNASSEYSGTYSCTVRNRVGSDQCLLRLNVVPPSNKAHHHHHHSASASAKEICGNPVTDNVKDITKLVANLPNDYMITLNYVAGMDVLPSHCWLRDMVIQLSLSLTTLLDKFSNISEGLSNYSIIDKLGKIVDDLVLCMEENAPKNIKESPKRPETRSFTPEEFFSIFNRSIDAFKDFMVASDTSDCVLSSTLGPEKDSRVSVTKPFMLPPVA
  GFP positive cell ratio, M07e cells, Ax1CAgfp at MOI 100 (adenovirus alone 0.5%): 82%
